Measured values reported in publication PMC10708208 (Science Advances, 2023).
Like-named read-outs stand apart in the source and are kept apart here.

Columns and labels:
[1] = target: T1, F-actin (cryo-EM samples) ( (chicken and rabbit muscle …, UniProt P68139 1-377)); assay: cryo-EM structure
[2] = target: T1, F-actin (cryo-EM samples); assay: cryo-EM structure; remark: listed apart in the source

| Binder | stoichiometry N [1] | stoichiometry N [2] |
| --- | --- | --- |
| SipA^α (SipA_(497–669)) (domain or fragment) NKAGTTDNDNSQTDKTGPFSGLKFKQNSFLSTVPSVTNMHSMHFDARETFLGVIRKALEPDTSTPFPVRRAFDGLRAEILPNDTIKSAALKAQCSDIDKHPELKAKMETLKEVITHHPQKEKLAEIALQFAREAGLTRLKGETDYVLSNVLDGLIGDGSWRAGPAYESYLNKP | 0.5 SipA per actin subunit (molar ratio) | – |
| SipA^β (SipA_(426–685)) (domain or fragment) GETTSFDEVDGVTSKSIIGKPVQATVHGVDDNKQQSQTAEIVNVKPLASQLAGVENVKTDTLQSDTTVITGNKAGTTDNDNSQTDKTGPFSGLKFKQNSFLSTVPSVTNMHSMHFDARETFLGVIRKALEPDTSTPFPVRRAFDGLRAEILPNDTIKSAALKAQCSDIDKHPELKAKMETLKEVITHHPQKEKLAEIALQFAREAGLTRLKGETDYVLSNVLDGLIGDGSWRAGPAYESYLNKPGVDRVITTVDGLHMQR | – | 0.5 SipA per actin subunit (molar ratio) |
